Broadly, the Tm is the temperature at which the thermal transition is half complete.

The chains are these.
B1: Rubredoxin, P24297 (parent)
chain: MAKWVCKICGYIYDEDAGDPDNGISPGTKFEELPDDWVCPICGAPKSEFEKLED
B2: Rubredoxin, P00268 (parent)
chain: MKKYTCTVCGYIYNPEDGDPDNGVNPGTDFKDIPDDWVCPLCGVGKDQFEEVEE

In series [1] the parent is B1. The following applies: Pyrococcus furiosus (strain ATCC 43587 / DSM 3638 / JCM 8422 / Vc1), pH 9.08, Thermal, NMR, Sodium borate 100 mM, reversible: Yes, structure 1BRF, whole UniProt chain shown.
The variants in series [2] derive from B2. The conditions noted are these: Clostridium pasteurianum, pH 9.08, Thermal, NMR, Sodium borate 100 mM, reversible: Yes, structure 1IRO, whole UniProt chain shown.

Turning to MAKWVCKICGYIYDEDAGDPDNGVSPGTKFEEIPDDWVCPICGAPKSEFEKLED, in series [1], the Tm is 133 °C, the “heat capacity change of unfolding” value is 0.5 kcal/mol/K and the “unfolding enthalpy (van 't Hoff)” value came to 62 kcal/mol.

In the case of MAKWVCKICGYIYDEDAGDPDNGISPGTKFEEIPDDWVCPICGAPKSEFEKLED, in series [1] (133.6 °C), the “ddG of mutation (higher = less stable)” value is 0.88 kcal/mol and the “heat capacity change of unfolding” value was 0.5 kcal/mol/K.

MAKWVCKICGYIYDEDAGDPDNGVSPGTKFEELPDDWVCPICGAPKSEFEKLED: the “heat capacity change of unfolding” value in series [1] (133.6 °C) is 0.5 kcal/mol/K. Moreover, in series [1], the midpoint of thermal melting (Tm) stood at 136 °C, the “heat capacity change of unfolding” value was 0.5 kcal/mol/K and the “unfolding enthalpy (van 't Hoff)” value was 74 kcal/mol.

Turning to MKKYTCTVCGYIYNPEDGDPDNGINPGTDFKDLPDDWVCPLCGVGKDQFEEVEE, in series [2], the midpoint of thermal melting (Tm) worked out at 115 °C, the “ddG of mutation (higher = less stable)” value was -1.31 kcal/mol, the “heat capacity change of unfolding” value was 0.5 kcal/mol/K and the “unfolding enthalpy (van 't Hoff)” value stood at 65 kcal/mol.

Take MKKYTCTVCGYIYNPEDGDPDNGINPGTDFKDIPDDWVCPLCGVGKDQFEEVEE: in series [2] (107 °C), the “ddG of mutation (higher = less stable)” value was -0.36 kcal/mol and the “heat capacity change of unfolding” value was 0.5 kcal/mol/K. In series [2], the Tm worked out at 110 °C, the “ddG of mutation (higher = less stable)” value was -0.36 kcal/mol, the “heat capacity change of unfolding” value amounted to 0.5 kcal/mol/K and the “unfolding enthalpy (van 't Hoff)” value is 59 kcal/mol.

MKKYTCTVCGYIYNPEDGDPDNGVNPGTDFKDLPDDWVCPLCGVGKDQFEEVEE: in series [2] (107 °C), the “ddG of mutation (higher = less stable)” value was -0.76 kcal/mol and the “heat capacity change of unfolding” value was found to be 0.5 kcal/mol/K. In series [2], the Tm came to 112 °C, the “ddG of mutation (higher = less stable)” value was -0.76 kcal/mol, the “heat capacity change of unfolding” value was 0.5 kcal/mol/K and the “unfolding enthalpy (van 't Hoff)” value was determined as 64 kcal/mol.

As to MKKWTCTVCGYIYNPEDGDPDNGINPGTDFKDLPDDWVCPLCGVGKDQFEEVEE, in series [2], the Tm stood at 114 °C, the “heat capacity change of unfolding” value came to 0.5 kcal/mol/K and the “unfolding enthalpy (van 't Hoff)” value was determined as 63 kcal/mol.

These data come from FireProtDB (doi:10.1016/j.bpc.2006.10.013).
